In PMC4538835:

Columns and labels:
Assay in all cases: fluorescence polarisation
[1] = target: MED25 ACID/PTOV domain (residues 391 to 548) (human) (UniProt Q71SY5)
[2] = target: TAMRA-labelled ERM_(38–68) F47L/W57L (human) (UniProt P41161)
[3] = target: TAMRA-labelled ERM_(38–68) (human) (UniProt P41161)
[4] = target: TAMRA-labelled ERM_(38–68) W57L (human) (UniProt P41161)

| IC50 [1] | Kd [2] | Kd [3] | Kd [4] | Substance |
| --- | --- | --- | --- | --- |
| 1.5 µM | – | – | – | ERM_(38–68) peptide (unlabelled by dye) (from UniProt P41161 38-68) |
| – | 8.3 µM | 0.6 µM | 4.8 µM | MED25 ACID/PTOV domain (residues 391 to 548) (from UniProt Q71SY5 391-548) (domain or fragment) |
